In the DeepSol protein solubility set:

Assay: soluble on expression in E. coli; label from the status in PepcDB or PDB records

| Sequence | soluble on expression in E. coli |
| --- | --- |
| KPPAESASQTAVAITQSSVKTMAPALQAIVDQSWQLQLSASPEMAYGMGDKSAAGKLQDLSPEALAKLNQGQIAILVQLKALDRSKLSKEDKINAQILEDQLQNEVDLYKYKDYYLPITAESGFHAYISSIAQGRFNTQEDYQNYLDKLKALPNYFAQQTYWLKQGLKEGITPPKATLKGFENSISAYILPVEKSSYFKPFTQYPNHFTEAQKAQLTQQGRALVEQNVIPTYQAFYDFMTQEYMPNTRDNIAANSLPNGDAFYENRVRYYTTLDITSAEVHELGLKEVKRIRQEMEQVIKSVGFKGSFADFLYFLRTDPQFYATSADQLLKEAAFIAKKADATLPKYFGKLPRKPYGIAPVPAEIAPKYTSGRYSGSNRDDEPGYYWVNTYALDKRPLYELEALTLHEAVPGHHLQISLNSELSSQPDFRRYSYISAFGEGWGLYSEYLGLEAGFYQDPYSNFGRLTYEMWRAARLVVDTGMHAQGWSREQAIEFMANNTALSLHNVTTEIDRYITWPGQALSYKIGELTIKRLRAKAEQALGDKFDIRAFHDAVLENGSVPMSVLEQQINDFIEAKKAA | soluble |
| KRGPSAVTVVTEQVETHEINQSLSLIGKLKAAESVVVASEVAGKVKQIAVKANQNVQQNQLLIQLDDDKAQAALVEAKAYLKDEERKLKEFQRLVKRNAITQTEIDAQKASVEIAQARLDAAKANLADLHITAPFSGTVGFIDFSRGKMVSAGTELLTLDDLSVMELDLQIPERYLSMLSVGMEVAAKTSAWGEQRFSGKVTGIDTRISAETLNLRVRIEFDNPENQLKPG | not soluble |
| KRGRSVLVLDHAKKPGRKILISGGGRCNFTNYDVSASNYLCQNPHFVKSALSQYTNWDFISMVSKHGIEFEERDHGQLFCVDAFTAKDIVKMLLAECDMPNIQQRYQCDVHTIEKTEEGFRLHAGTEPVECESLVVATGGLSMPKLGATPFGYKVAEQ | not soluble |
| KRGTDLGRPINATFDFFSRLFSKRKNVHMTFFNSSTPLDVNYTPNQQEIDTILDKISRSGYESLTKEEKQKLFKASQK | not soluble |
| KTAFTAEVLAQSFSGEVQKLSSLVLPAEVIIAQSSIPGEGLGIFSKTWIKAGTEMGPFTGRVIAPEHVDICKNNNLMWEVFNEDGTVRYFIDASQEDHRSWMTYIKCARNEQEQNLEVVQIGTSIFYKAIEMIPPDQELLVWYGNSHNTFLGIPGVPGLEEDQKKNKHED | soluble |
| KVGILQFVTHDALDQIEKGIEDGLKEAGYKGDKVQITLLNAEGDQSKIQTMSKQLVNDKNDVVIGIATPAAQGLAAATKDIPVIMGAISDPVGAKLVKNLKHPEGNVTGTSNQVPIKQTVELVKSLTPNAKTIGILYASSEDNSQSQVESFKKYAEQDGLNVIEYAVPSTNEINTTMSVMTGKVDAIWTPQDNTIASSFSTVISLANQAKIPVYTTVDTMVKEGGLASVAQNQYELGKATARSAIKVLKGKKVKDIPVDVIDDGTPTLNLKVARDLNITIPDDVLKQSDIAVKADK | not soluble |
| KVGLIIISHGRIATETVNVVKELLGVKFPVAIDMPLDEKPINIYNKAVELSKIIDQGKGILFLVDIGSLTNIGQIVNKRTNISTKTIDRVDLLMALEATRKVSMGEEELDEIFFSLLKDRMGYNYELEKHIDKS | not soluble |
| LCPDAVAGIAVAAPHIYVEDITVANIAVALRAYRETTLRDRLARYHDDVDSTFASWTDTWLDPAFRQWNIEAYLPAITCPMLAMQGVDDEYGTLEQIRGIRRLAPQTRLLEIQDCGHSPHKDQPELVTRALAGFV | not soluble |
| LDRQTERLQQGEVDVRFNMVSRMLDHPDLAERWPHLQGKLDNLSQEYELIRFWIDSDDPRYHYGRFSEPVQRLIADGAGRYELELPEHRYALTARVGVLPAREGRPRLTYVTAIDSAAFHEARTSTLKW | not soluble |
| LDSANQQASNESIEVRGKIKLGLLPETYEHLQPILFEFQDQYPQVELDIRNINNGFIDMFQQGLDIALHGGMLFDSDIVARKILTLDRCVVASPNYLQTHGTPATLEELSDHQCICFRWPNGNVDNLWHFQEQNVALKPKLISNNIGFIKSSTVLDRGISYIPKLLVKNELESGALVQVLSQYAVTEETGWLLYPQPKTLNQASRLLIEHLCNKIPKLL | soluble |
| LEGENSKQKVQMSIHQFTNICFKKCVESVNDSNLSSQEEQCLSNCVNRFLDTNIRIVNGLQNTR | soluble |
| LENDRTTFRIRNLDSGEIIWSGMGAVYPVYSPSFDHAADAFAFAFSSPADPPEIHLLRDAETKSSINSHLDGVSPYPAEIVEWKAKDGEDLYGILRLIDPKNPLIVYIHGGPTSFSYASFLDRTSIYLGYGFNVFAPNYRGSVGKGRRYAELNVGDLGGKDFDDVISGIEFLKNTGKIATDRIYITGGSYGGYMSALAVMKTDIFRASVSLFGISDWVSFHGVSNLHLWDRLHMDADPWAFKKYDEYSPIRIMHEPKTPTLLMHGIKDPYVPIGQYYEFYRFLKEKNCEVRMIVFPREGHGFTEKEHIRRQYMETIRFMKDH | not soluble |
| LFSYKSTMWQFINKVTSDRINILNQYYEKFGIHILPQQVTNYRSAGIIVMDNIYVT | not soluble |
| LGGVAPEQVAYAVEQAGKRLQERDNAGVKVRPARLTDLDALEGMVAYWAGLGENLPRNRNELVRDIGSFAVAEHHGEVTGCASLYVYDSGLAEIRSLGVEAGWQSQGQGKAIVQHLVEKAREMAIKKVFVLTRVPEFFMKQDFIPTSRSLLPEKVLKDCDQCPRQH | not soluble |
| LGSMAAAAAQGGGGGEPRRTEGVGPGVPGEVEMVKGQPFDVGPRYTQLQYIGEGAYGMVSSAYDHVRKTRVAIKKISPFEHQTYCQRTLREIQILLRFRHENVIGIRDILRASTLEAMRDVYIVQDLMETDLYKLLKSQQLSNDHICYFLYQILRGLKYIHSANVLHRDLKPSNLLINTTCDLKICDFGLARIADPEHDHTGFLTEYVATRWYRAPEIMLNSKGYTKSIDIWSVGCILAEMLSNRPIFPGKHYLDQLNHILGILGSPSQEDLNCIINMKARNYLQSLPSKTKVAWAKLFPKSDSKALDLLDRMLTFNPNKRITVEEALAHPYLEQYYDPTDEPVAEEPFTFAMELDDLPKERLKELIFQETARFQPGVLEAP | soluble |
| LHRILKVVFPKRKIVLWVIGGDLHLEVEKGRYRVDVLKSLQYLLVEGQAMKDALCGQGVENVKVMPNFKDISLFSPLHCHTPYTPSKVLRLVFFSRIMPDKGCDLILDLAHKLNERGYKDKFVIDFYGPIAPDYSKRFSSILDTLPNVHYQGTLD | not soluble |
| LMTIKCLLLAVMVCPFFITACSDKYSEQDRVQAINNADAPFGAGLLTFQISSDTQLNSLNEISNSCALLFLQASDKNTLQDIMNNPVLIKQFFIGTGKVDGILKVDKYVAMPGQEITLHIDRNEGTKYVGVVAGYYPFPGKQHMLLLDIPVDVVEEGWWNKSLHASLLPLSKKISMGKESISMK | not soluble |
| LNLSEKQVVKIGILQYVTHDALDAIEKGVEDGLAQEGYKGKKVKLTVLNAEADQSKIQAMSKQLVNHHNDILIGIATPSAQGLAASTKDTPIIMGAVSDPLGAKLVTNMKKPTTNVTGLSNVVPTKQTVQLIKDITPNIKRIGILYASSEDNSVSQVTEFTKYAQKAGLEVLKYSVPSTNEIKTSMSVMTKKVDAVFVPQDNTIASAFRTVIVAANQANIPVYSSVDTMVEQGSIASVAQSQYGLGLETAKQAIKVLRGKPVKDVPVKVIDTGKPSLNLKAAKHLGIKIPKKIMKQAEITVKVD | not soluble |
| LPSGIIIKGIGGFYYVKTENGIYECKARGVFRKDSKIPLPGDEVVISVIDEEKKKGYIEEICERKIQLIRPAVANINQIALVVSVKSPLPDFVLLDKLLITVMQKELNAIICINKIDLDEGYKDVIIDCYKGTGVETVCVSSVLNVGFEQLAKMLEGKTTVFAGQSGVGKSTILNKILDSYVMETGEISDKIERGRHTTRHAELLELKSGGFVVDTPGFSSFELSEIEPKELQNYYPEFRDYIGKCRFAGCSHISEPGCMVKSALENGMINKDRYGRYIIFYNMLKDKQRRKYS | not soluble |
| LQKVFDNTVVQNSDIKKFNESKLIKPNLMQEHALKSLESLRNVGEEKGLIISATGTGKTILCALDVRAYSPDKFLFIVHNEGILNRAIEEFKKVFPYEDESNFGLLTGKRKDHDAKFLFATIQTLSKKENYKLFNSNHFDYIVFDEAHRIAASSYQKIFNYFKPNFLLGMTATPERTDELNIFE | not soluble |
| LRTITRDDWETCIDLKVARHQAHFVASNLYSLAQSRFLPGFRAVGIHHGGRMVGFALYGPDADDGHYWLYRLMIDRRYQGKGHGRAALQRIIASVRRTRRRSDRLMVAYAVDNDVARQLYRDAGFVEQGLAPWGETMACLMLPEPSHRSGKVAGAPGGRAAHGVPA | not soluble |
| LSFYHPEDRETVSDAVDAALNDGDPYDLEVRLITARGNHRWVRTRGKRVEGAEKPTVRGFIQDITEQKER | not soluble |
| LSITTPEQRIEKAKGETAYLPCKFTLSPEDQGPLDIEWLISPSDNQIVDQVIILYSGDKIYDNYYPDLKGRVHFTSNDVKSGDASINVTNLQLSDIGTYQCKVKKAPGVANKKFLLTVLVKPSGTRCFVDGSEEIGNDFKLKCEPKEGSLPLQFEWQKLSDSQTMPTPWLAEMTSPVISVKNASSEYSGTYSCTVQNRVGSDQCMLRLDVVPPS | soluble |
| LSYHVIGPLRELTSTARRLGRGELDARVTYSGEDELAQLGERFNQMAGELKSIYGDLEERVEDKTRALSQSHQRLELLYASARRLGENPYDSRTLQPLLNQLEKVLDAGRVTLCLNKDGVERAYSSLTTTERPADFCLQGDCGSCREQASACDQPSSLAQPLLMQPLSIAGHRFGELFIESRSGRLENWQQQLIETFCDNIARTFALSLQQEQESRLALFAERGTIARELHDSLAQSLSYLKIQVSRLGTLLKREAPAEKIEDTLDELREGLNGAYRQLRELLTTFRLSLDEPSLEAALGNAVAEFGERGEVTIELDNRLQHVPLSPNEEIHVLQIVREALSNVVRHSQAQRAWVRLSSQADGQVSIAVEDDGVGFDPQQNRSGHYGLTIMQERGQTLGSQLRFEARAPHGTRVLFSFVPTALQP | not soluble |
| LTGPQLAVVGSRQPSPYALRAMRRLLPQVVRQQVCLVSGLAQGVDTLAHQAALAHRGKTIAVIGTGLDHCYPAGNRDLMTELAHHHLVISEYPWGTAGARHHFPERNRIIAGLSQSTLVVEAARHSGSLITANIALQENRNVLAVPGSLDNPNSVGTNELILAGAKPILNSEHIIEEVLVDKRL | not soluble |
| LVERDSFVNALRESERRYRNIIETASEGILIIDSEVRISYANKKMTDMLGCPLEEVTGRKMCDFVSEESKDIVKLNQKRRRQGINDSYELKLVCKDGSSLWALVNAKSLFDKDGKFMGSISLLTDIT | not soluble |
| LYPEEILDTHWELWKKTHRKQYNNKVDEISRRLIWEKNLKYISIHNLEASLGVHTYELAMNHLGDMTSEEVVQKMTGLKVPLSHSRSNDTLYIPEWEGRAPDSVDYRKKGYVTPVKNQGQCGSCWAFSSVGALEGQLKKKTGKLLNLSPQNLVDCVSENDGCGGGYMTNAFQYVQKNRGIDSEDAYPYVGQEESCMYNPTGKAAKCRGYREIPEGNEKALKRAVARVGPVSVAIDASLTSFQFYSKGVYYDESCNSDNLNHAVLAVGYGIQKGNKHWIIKNSWGENWGNKGYILMARNKNNACGIANLASFPKM | soluble |
